Results published in US20050214899.
Positions count from the first letter of the chain named. Names may count otherwise.

B1: MetAP-GTG (protein)
chain: AISIKTPEDIEKMRVAGRLAAEVLEMIEPYVKPGVSTGELDRICNDYIVNEQHAVSACLGYHGYPKSVCISINEVVCHGIPDDAKLLKDGDIVNIDVTVIKDGFHGDTSKMFIVGKPTIMGERLCRITQESLYLALRMVKPGINLREIGAAIQKFVEAEGFSVVREGCGHGIGRGFHEEPQVLHYDSRETNVVLKPGMTFTIEPTVNAGKKEIRTMKDGWTVKTKDRSLSAGYEHTIVVTDNGCEILTLRKDDTIPAIISHDE
B2: MetAP-M206G-Q233G (protein)
chain: B1 chain with G167Y, T205G
B3: MetAP-M206T-Q233G (protein)
chain: B1 chain with G167Y
B4: MetAP-YMQ (wild type E. coli methionine aminopeptidase) (protein)
chain: B1 chain with G167Y, T205M, G232Q
B5: MetAP-M206T-Q233T (protein)
chain: B1 chain with G167Y, G232T

Molecular target: T1, MADWLTFQKKHI
T1 chain: MADWLTFQKKHI

Protein	Specific activity (unit/mg)
B1	9.8
B2	3.28
B3	73
B4	85

Molecular target: T2, MADYLT
T2 chain: MADYLT

Protein	Specific activity (unit/mg)
B1	2.5
B2	0.29
B3	116
B5	0.12
B4	138

Molecular target: T3, MADY
T3 chain: MADY

Protein	Specific activity (unit/mg)
B1	1.68
B2	0.51
B3	72
B5	0.38
B4	138

Molecular target: T4, MQDWLTFQKKHI
T4 chain: MQDWLTFQKKHI

Protein	Specific activity (unit/mg)	specific activity relative to that for MADWLTFQKKHI
B1	4.24	The specific activity of MetAP-GTG on the dodecapeptide MQDWLTFQKKHI is 43% of that for MADWLTFQKKHI
B2	0.5	
B3	0.59	
B4	0.62	

Molecular target: T5, MQDYLT
T5 chain: MQDYLT

Protein	Specific activity (unit/mg)
B1	0.23
B2	0.29
B3	0.42
B5	0.13
B4	0.43
